Measurements published in patent US20200095333A1 (published 2020).

Columns and labels:
[1] = molecular target: T1, human serum albumin (HSA) (human, UniProt P02768 25-609); assay: ELISA, HSA coat, biotinylated sCD32B detection
T1 construct: also called human albumin; HRP-human albumin

[2] = molecular target: T2, sCD16A (soluble CD16A, FcgammaRIIIA) (human, UniProt P08637 17-208); assay: dual ELISA, CD16 coat, biotinylated sCD32B detection
T2 construct: extracellular domain; given only as soluble; used immobilised (SPR), coated, or biotin/HRP-labelled as probe (ELISA); also called CD16 antigen; sCD16A-Biotin
T2 sequence (P08637 17-208): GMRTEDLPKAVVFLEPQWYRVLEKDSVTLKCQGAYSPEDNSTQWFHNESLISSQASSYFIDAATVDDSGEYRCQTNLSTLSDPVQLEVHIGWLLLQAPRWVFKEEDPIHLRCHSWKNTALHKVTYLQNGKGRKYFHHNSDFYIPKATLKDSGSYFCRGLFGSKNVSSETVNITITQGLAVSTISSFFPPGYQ

[3] = molecular target: T3, sCD32B (soluble CD32B, FcgammaRIIB) (human, UniProt P31994 43-217); assay: as above
T3 construct: extracellular domain; also called soluble CD32B ectodomain
T3 sequence: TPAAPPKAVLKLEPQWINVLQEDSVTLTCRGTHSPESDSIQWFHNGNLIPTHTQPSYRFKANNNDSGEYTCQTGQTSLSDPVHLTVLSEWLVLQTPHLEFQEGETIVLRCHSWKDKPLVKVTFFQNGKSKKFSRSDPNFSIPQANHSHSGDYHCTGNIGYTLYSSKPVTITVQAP

soluble CD16A(158F) = molecular target: T4, soluble CD16A(158F) (human, UniProt P08637 17-208); assay: SPR, HSA immobilised, ABD-DART then 200 nM CD32B and 200 nM CD16A(F158)
T4 construct: extracellular domain; also called CD16A(F158); sCD16A
T4 sequence (P08637 17-208): as the sequence (P08637 17-208) above

[4] = molecular target: T2, sCD16A (soluble CD16A, FcgammaRIIIA); assay: sandwich ELISA, CD32B coat, HRP-CD16 probe
[5] = molecular target: T3, sCD32B (soluble CD32B, FcgammaRIIB); assay: sandwich ELISA, CD32B coat, HRP-CD16 probe
[6] = molecular target: T2, sCD16A (soluble CD16A, FcgammaRIIIA); assay: SPR (BIAcore), receptor immobilised, diabody 6.25-200 nM
[7] = molecular target: T2, sCD16A (soluble CD16A, FcgammaRIIIA); assay: mCD32-hCD16A binding ELISA
mCD32B (murine CD32B) = molecular target: T5, mCD32B (murine CD32B) (murine, UniProt P08101 30-210); assay: mCD32-hCD16A binding ELISA
T5 sequence: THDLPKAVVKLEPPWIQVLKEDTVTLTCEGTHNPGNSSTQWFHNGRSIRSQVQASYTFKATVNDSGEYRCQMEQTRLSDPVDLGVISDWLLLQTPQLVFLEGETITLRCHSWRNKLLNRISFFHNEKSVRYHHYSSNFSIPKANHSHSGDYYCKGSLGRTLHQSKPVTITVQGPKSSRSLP

[8] = molecular target: T2, sCD16A (soluble CD16A, FcgammaRIIIA); assay: sandwich ELISA, CD32B coat, CD16A probe
[9] = molecular target: T3, sCD32B (soluble CD32B, FcgammaRIIB); assay: sandwich ELISA, CD32B coat, CD16A probe
[10] = molecular target: T1, human serum albumin (HSA); assay: HSA binding class (+ = 0.1-0.4)
[11] = molecular target: T1, human serum albumin (HSA); assay: HSA binding class (+++ = 0.7-1.0)
[12] = molecular target: T1, human serum albumin (HSA); assay: deimmunized ABD ELISA (FIG. 57)
[13] = molecular target: T1, human serum albumin (HSA); assay: albumin binding of ABD variants

B1: hCD16-hCD32B ABD-DART (bispecific antibody)
chain 1: DIVMTQSPDSLAVSLGERATINCKASQSVDFDGDSFMNWYQQKPGQPPKLLIYTTSNLESGVPDRFSGSGSGTDFTLTISSLQAEDVAVYYCQQSNEDPYTFGQGTKLEIKGGGSGGGGQVQLVQSGAEVKKPGASVKVSCKASGYTFTNYWIHWVRQAPGQGLEWIGVIDPSDTYPNYNKKFKGRVTMTVVVSTSTAYMELRSLRSDDTAVYYCARNGDSDYYSGMDYWGQGTTVTVSSGGCGGGKVAALKEKVAALKEKVAALKEKVAALKEGGGNS
chain 2: EIVLTQSPDFQSVTPKEKVTFTCRTSQSIGTNIHWYQQKPDQSPKLLIKEVSESISGVPSRFSGSGSGTDFTLTINSLEAEDAATYYCQQSNTWPFTFGGGTKVEIKGGGSGGGGQVTLRESGPALVKPTQTLTLTCTFSGFSLSTSGMGVGWIRQPPGKALEWLAHIWWDDDKRYNPALKSRLTISKDTSKNQVVLTMTNMDPVDTATYYCAQINPAWFAYWGQGTLVTVSSGGCGGGEVAALEKEVAALEKEVAALEKEVAALEKGGGNSLAEAKVLANRELDKYGVSDYYKNLINNAKTVEGVKALIDEILAALP
notes: also called hCD16-hCD32B EK ABD-DART; DART ABD fusion
[1]
  binding result: binds
[2]
  binding result: binds
[3]
  binding result: binds
Soluble CD16A(158F)
  binding result: binds

B2: product of co-expression of constructs 7 and 8 (pMGX0677+pMGX0678), tetrameric IgG-like diabody (bispecific antibody)
chain 1: EIVLTQSPDFQSVTPKEKVTFTCRTSQSIGTNIHWYQQKPDQSPKLLIKEVSESISGVPSRFSGSGSGTDFTLTINSLEAEDAATYYCQQSNTWPFTFGGGTKVEIKGGGSGGGGQVTLRESGPALVKPTQTLTLTCTFSGFSLSTSGMGVGWIRQPPGKALEWLAHIWWDDDKRYNPALKSRLTISKDTSKNQVVLTMTNMDPVDTATYYCAQINPAWFAYWGQGTLVTVSSLGGCFNRGEC
chain 2: not shown
[4]
  binding result: binds
[5]
  binding result: binds

B3: product of constructs 1 and 9 (pMGX0669+pMGX0719) (bispecific antibody)
chain 1: EIVLTQSPDFQSVTPKEKVTFTCRTSQSIGTNIHWYQQKPDQSPKLLIKEVSESISGVPSRFSGSGSGTDFTLTINSLEAEDAATYYCQQSNTWPFTFGGGTKVEIKGGGSGGGGQVTLRESGPALVKPTQTLTLTCTFSGFSLSTSGMGVGWIRQPPGKALEWLAHIWWDDDKRYNPALKSRLTISKDTSKNQVVLTMTNMDPVDTATYYCAQINPAWFAYWGQGTLVTVSSLGGC
chain 2: not shown
notes: hinge-Fc at the N-terminus of the heavier chain; also called constructs 9+1; copies: 2 + 2
[4]
  binding result: binds
[5]
  binding result: binds

B4: product of constructs 1 and 10 (pMGX0669+pMGX0718) (bispecific antibody)
chain 1: EIVLTQSPDFQSVTPKEKVTFTCRTSQSIGTNIHWYQQKPDQSPKLLIKEVSESISGVPSRFSGSGSGTDFTLTINSLEAEDAATYYCQQSNTWPFTFGGGTKVEIKGGGSGGGGQVTLRESGPALVKPTQTLTLTCTFSGFSLSTSGMGVGWIRQPPGKALEWLAHIWWDDDKRYNPALKSRLTISKDTSKNQVVLTMTNMDPVDTATYYCAQINPAWFAYWGQGTLVTVSSLGGC
chain 2: not shown
notes: Fc at the N-terminus of the heavier chain; also called constructs 10+1; copies: 2 + 2
[4]
  binding result: binds
[5]
  binding result: binds

B5: h3G8 CMD (covalent monospecific diabody, construct 3) (other)
chain: DIVMTQSPDSLAVSLGERATINCKASQSVDFDGDSFMNWYQQKPGQPPKLLIYTTSNLESGVPDRFSGSGSGTDFTLTISSLQAEDVAVYYCQQSNEDPYTFGQGTKLEIKGGGSGGGGQVTLRESGPALVKPTQTLTLTCTFSGFSLSTSGMGVGWIRQPPGKALEWLAHIWWDDDKRYNPALKSRLTISKDTSKNQVVLTMTNMDPVDTATYYCAQINPAWFAYWGQGTLVTVSSLGGC
modifications: covalent homodimer; interchain disulfide through the C-terminal LGGC cysteines
notes: covalent homodimer diabody; also called h3G8 diabody
[6]
  Kd: 18 nM

B6: Ig-like tetravalent DART (2.4G2-3G8-hKappa / 3G8-2.4G2-hG1) (bispecific antibody)
chain 1: DVQMTQSPSNLAASPGESVSINCKASESISKYLAWYLQKPGKANKLLMYDGSTLQSGIPSRFSGSGSGTDFTLTIRSLEPEDFGLYYCQQHYEYPATFGSGTKLEIKGGGSGGGGQVTLKESGPGILQPSQTLSLTCSFSGFSLRTSGMGVGWIRQPSGKGLEWLAHIWWDDDKRYNPALKSRLTISKDTSSNQVFLKIASVDTADTATYYCAQINPAWFAYWGQGTLVTVSSLGGCGGGSRTVAAPSVFIFPPSDEQLKSGTASVVCLLNNFYPREAKVQWKVDNALQSGNSQESVTEQDSKDSTYSLSSTLTLSKADYEKHKVYACEVTHQGLSSPVTKSFNRGEC
chain 2: not shown
notes: also called Ig DART 1; Ig DART 2
[7]
  binding result: binds
mCD32B (murine CD32B)
  binding result: binds

B7: product of constructs 11 and 12 (bispecific antibody)
chain 1: not shown
chain 2: DIVMTQSPDSLAVSLGERATINCKASQSVDFDGDSFMNWYQQKPGQPPKLLIYTTSNLESGVPDRFSGSGSGTDFTLTISSLQAEDVAVYYCQQSNEDPYTFGQGTKLEIKGGGSGGGGQVQLVQSGAEVKKPGASVKVSCKASGYTFTNYWIHWVRQAPGQCLEWIGVIDPSDTYPNYNKKFKGRVTMTVVVSTSTAYMELRSLRSDDTAVYYCARNGDSDYYSGMDYWGQGTTVTVSSFNRGEC
notes: C-terminal hinge-Fc; engineered cysteines G105C (2B6 VL) and G44C (2B6 VH); copies: 2 + 2
[4]
  binding result: binds
[5]
  binding result: binds

B8: product of constructs 15 and 16 (pMGX0752+pMGX0753) (bispecific antibody)
chain 1: EIVLTQSPDFQSVTPKEKVTFTCRTSQSIGTNIHWYQQKPDQSPKLLIKEVSESISGVPSRFSGSGSGTDFTLTINSLEAEDAATYYCQQSNTWPFTFGGGTKVEIKGGGSGGGGQVTLRESGPALVKPTQTLTLTCTFSGFSLSTSGMGVGWIRQPPGKALEWLAHIWWDDDKRYNPALKSRLTISKDTSKNQVVLTMTNMDPVDTATYYCAQINPAWFAYWGQGTLVTVSSFNRGEC
chain 2: DIVMTQSPDSLAVSLGERATINCKASQSVDFDGDSFMNWYQQKPGQPPKLLIYTTSNLESGVPDRFSGSGSGTDFTLTISSLQAEDVAVYYCQQSNEDPYTFGQGTKLEIKGGGSGGGGQVQLVQSGAEVKKPGASVKVSCKASGYTFTNYWIHWVRQAPGQGLEWIGVIDPSDTYPNYNKKFKGRVTMTVVVSTSTAYMELRSLRSDDTAVYYCARNGDSDYYSGMDYWGQGTTVTVSSVEPKSC
notes: Hu2B6VL-Hu3G8VH-FNRGEC and Hu3G8VL-Hu2B6VH-VEPKSC; also called construct 15/16 combination
[8]
  binding result: binds
[9]
  binding result: binds

## LAEAKVLANRELDKYGVSDYYKNLADNAKTAEGVKALIDEILAALP (other, also called 65A/66D/71A) [ABD I65A/N66D/V71A]
[10]
  HSA binding: 0.1 to 0.4

## LAEAKVLANRELDKYGVSDYYKNAIDNAKTAEGVKALIDEILAALP (other, also called 64A/66D/71A) [ABD L64A/N66D/V71A]
[10]
  HSA binding: 0.1 to 0.4

## LAEAKVLANRELDKYGVSDYYKNLIENAKTVEGVKALIDEILAALP (other) [ABD N66E]
[11]
  HSA binding: 0.7 to 1

## LAEAKVLANRELDKYGVSDYYKNLISNAKSVEGVKALIAEILAALP (other) [variant ABD N66S, T70S and D79A]
[12]
  binding result: binds

## LAEAKVLANRELDKYGVSDYYKNLIDNAKSAEGVKALIDEILAALP (other) [ABD N66D/T70S/V71A (ABD (DSA))]
[13]
  binding result: binds

## LAEAKVLANRELDKYGVSDYYKNGIDNAKTAEGVKALIDEILAALP (other, also called 64G/66D/71A) [ABD L64G/N66D/V71A]
[10]
  HSA binding: 0.1 to 0.4

## LAEAKVLANRELDKYGVSDYYKNLIDNAKTVEGVKALIDEILAALP (other) [ABD N66D]
[11]
  HSA binding: 0.7 to 1

## LAEAKVLANRELDKYGVSDYYKNAANNAKTVEGVKALIAEILAALP (other) [variant ABD L64A, I65A and D79A]
[12]
  binding result: binds
